Substrate in data set [1]: NC[C@H]1O[C@H](O[C@H]2[C@H](O[C@@H]3O[C@H](CO)[C@@H](O)[C@H]3O)[C@@H](O)[C@H](N)C[C@@H]2N)[C@H](N)[C@@H](O)[C@@H]1O
Description: purified protein. Conditions: 100 µM MgATP, Tris buffer pH 7.5, 25 °C.

Substrate in data set [2]: NC[C@@H]1O[C@H](O[C@H]2[C@@H](O)[C@H](O[C@@H]3[C@@H](O)[C@H](N)C[C@H](N)[C@H]3O[C@H]3O[C@H](CN)[C@@H](O)[C@H](O)[C@H]3N)O[C@@H]2CO)[C@H](N)[C@@H](O)[C@@H]1O
The data set can be described thus: purified protein. Conditions: 100 µM MgATP, Tris buffer pH 7.5, 25 °C.

Substrate in data set [3]: NC[C@H]1O[C@H](O[C@H]2[C@H](O)[C@@H](O[C@H]3O[C@H](CO)[C@@H](O)[C@H](N)[C@H]3O)[C@H](N)C[C@@H]2N)[C@H](O)[C@@H](O)[C@@H]1O
The data set can be described thus: purified protein. The settings on record: 100 µM MgATP, Tris buffer pH 7.5, 25 °C.

Substrate in data set [4]: NC[C@@H]1O[C@H](O[C@H]2[C@@H](O)[C@H](O[C@@H]3[C@@H](O)[C@H](N)C[C@H](N)[C@H]3O[C@H]3O[C@H](CO)[C@@H](O)[C@H](O)[C@H]3N)O[C@@H]2CO)[C@H](N)[C@@H](O)[C@@H]1O
The data set can be described thus: purified protein. The settings on record: 100 µM MgATP, Tris buffer pH 7.5, 25 °C.

Substrate in data set [5]: NC[C@H]1O[C@H](O[C@H]2[C@H](O)[C@@H](O[C@H]3O[C@H](CO)[C@@H](O)[C@H](N)[C@H]3O)[C@H](N)C[C@@H]2N)[C@H](N)[C@@H](O)[C@@H]1O
The data set can be described thus: purified protein. The settings on record: 100 µM MgATP, Tris buffer pH 7.5, 25 °C.

Substrate in data set [6]: Nc1ncnc2c1ncn2[C@@H]1O[C@H](COP(=O)(O)OP(=O)(O)OP(=O)(O)O)[C@@H](O)[C@H]1O
Description: steady-state kinetics. It is filed as biochemical, Pseudomonas aeruginosa. Conditions: 100 µM kanamycin A, Tris buffer pH 7.5, Mg2+, 25 °C.

Substrate in data set [7]: Nc1nc2c(ncn2[C@@H]2O[C@H](COP(=O)(O)OP(=O)(O)OP(=O)(O)O)[C@@H](O)[C@H]2O)c(=O)[nH]1
The data set can be described thus: steady-state kinetics. It is filed as biochemical, Pseudomonas aeruginosa. The settings on record: 100 µM kanamycin A, Tris buffer pH 7.5, Mg2+, 25 °C.

B1: APH(3’)-IIb WT (Pseudomonas aeruginosa PAO1) (protein)
chain: MHDAATSMPPQAPSTWADYLAGYRWRGQGEGCSAATVHRLEAARRPTLFVKQEVLSAHAELPAEIARLRWLHGAGIDCPQVLNETQSDGRQWLLMSAVPGDTLSALAQRGELEPERLVRLVAAALRRLHDLDPAACPFDHRLERRLDTVRQRVEAGLVDEADFDDDHRGRSATELYRLLLDRRPAVEDLVVAHGDACLPNLLAEGRRFSGFIDCGRLGVADRHQDLALAARDIEAELGAAWAEAFLVEYGGDIDGERLAYFRLLDEFF
A word on the Km: it is the concentration of substrate that gives half-maximal velocity. Usually kcat stands for the number of substrate molecules converted per active site and unit of time at saturation. B1: the Km in data set [1] is 1.17 ± 0.26 µM; in data set [2] it was 0.27 ± 0.10 µM; in data set [3], 0.21 ± 0.10 µM; in data set [4], 0.50 ± 0.10 µM; in data set [5], 0.19 ± 0.07 µM; in data set [6], 3 µM. The Michaelis constant (Km) in data set [7] amounted to 320 µM. In addition, the kcat in data set [2] was 1.98 ± 0.17 s⁻¹; in data set [3], 0.58 ± 0.04 s⁻¹; in data set [4] it was 2.64 ± 0.14 s⁻¹; in data set [5], 2.13 ± 0.20 s⁻¹; in data set [6] it was 0.38 s⁻¹; in data set [7] it was 0.41 s⁻¹.
